Experimental data reported in US20070212355A1 (priority 2005, published 2007).
Ends that are not written are not given here.

Molecular target: mutated human GLP-2R (human) (UniProt O95838)
Assay: cell-based or functional assay
Conditions: not given

Molecule	EC50 (nM), cAMP expression assay [nM]
HGDGSFSDEMNTILDNLAARDFINWLIQTKITDGGGGSCPPCP (Fc fusion, part only; not given: CH2 and CH3 domains, part only, cysteine pairing not given here; also: partial core, CH2-CH3 domains follow in the full mimetibody) [A2G GLP-2 mimetibody linker length variant SEQ ID NO: 6]	40
HGDGSFSDEMNTILDNLAARDFINWLIQTKITDGGGGSGGGGSCPPCP (Fc fusion, part only; not given: Fc CH2 and CH3 domains, part only, cysteine pairing not given here; also: partial core, CH2-CH3 domains follow in the full mimetibody) [A2G GLP-2 mimetibody linker length variant SEQ ID NO: 7]	22.5
A2G GLP-2 mimetibody linker length variant SEQ ID NO: 8 (Fc fusion, part only; not given: CH2 and CH3 domains, part only, cysteine pairing not given here; also: partial core, CH2-CH3 domains follow in the full mimetibody) chain, part: HGDGSFSDEMNTILDNLAARDFINWLIQTKITDGGGGSGGGGSGGGGSCPPCP	12.7
A2G GLP-2 mimetibody linker length variant SEQ ID NO: 9 (Fc fusion, part only; not given: CH2 and CH3 domains, part only, cysteine pairing not given here; also: partial core, CH2-CH3 domains follow in the full mimetibody) chain, part: HGDGSFSDEMNTILDNLAARDFINWLIQTKITDGGGGSGGGGSGGGGSGGGGSCPPCP	4.6

Molecular target: T1, mutated human GLP-2R (Homo sapiens, UniProt O95838, E512D/G511A/L513V)
T1 construct: expressed in transfected cells; host or cells: HEK 293E clonal cell line
T1 sequence (O95838 1-553 G511A/E512D/L513V): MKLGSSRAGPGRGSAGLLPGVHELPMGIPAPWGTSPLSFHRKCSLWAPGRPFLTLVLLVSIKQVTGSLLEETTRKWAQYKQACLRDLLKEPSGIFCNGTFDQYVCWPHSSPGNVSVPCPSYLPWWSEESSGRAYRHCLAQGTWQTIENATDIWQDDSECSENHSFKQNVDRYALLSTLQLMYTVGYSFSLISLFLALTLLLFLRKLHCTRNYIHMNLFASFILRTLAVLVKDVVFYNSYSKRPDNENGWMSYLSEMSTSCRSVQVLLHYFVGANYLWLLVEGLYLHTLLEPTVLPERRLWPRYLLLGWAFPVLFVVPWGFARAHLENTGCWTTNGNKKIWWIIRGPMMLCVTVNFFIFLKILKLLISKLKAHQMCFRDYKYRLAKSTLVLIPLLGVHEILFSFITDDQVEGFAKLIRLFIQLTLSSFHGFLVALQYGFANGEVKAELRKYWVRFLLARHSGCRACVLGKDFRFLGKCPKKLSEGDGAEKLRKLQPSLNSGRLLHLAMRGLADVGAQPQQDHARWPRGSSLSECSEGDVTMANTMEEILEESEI
Assay: cAMP expression assay in HEK 293E clonal cell line expressing mutated human GLP-2R
Type: cell-based
Conditions: Example 2; 30 minutes incubation; mimetibodies vs corresponding peptides; read-out: EC50, stimulation of cAMP expression
Source text: To achieve this goal, a clonal cell line expressing a mutated human GLP-2R was generated by transfecting HEK 293E cells. The mutated human GLP-2R differs from the wild-type human GLP-2R (SEQ ID NO: 35) at three amino acid positions within the C-terminal intracellular region (SEQ ID NO: 36).
The cAMP expression was quantitated using the cAMP Direct Screen System (Cat. No. CSD 200, Applied Biosystems, Bedford, Mass.).
This assay was based on the cAMP Direct Screen System from Applied Biosystems utilizing a cell line expressing mutated huGLP-2R in HEK 293E cells. Peptide at concentrations ranging from 0.01 nM to 1.0 uM in PBS with 0.5% BSA was added to ˜50,000 cells suspended in 96-well plates. After a 30-minute incubation at 37° C., Lysis Buffer followed by luminescence reagents (Applied Biosystems) was added according to the manufacturers' procedures (Applied Biosystems Luminescence protocol: cAMP-Screen Direct System). Luminescence was quantitated using a TopCount liquid scintillation analyzer (PerkinElmer), and data was processed using Softmax software (Molecular Devices Corporation).

Molecule	EC50 [nM]
HSDGSFSDEMNTILDNLAARDFINWLIQTKITD [SEQ ID NO: 2, reference compound]	0.5

Same assay, conditions: Table 1; mimetibodies with variable linker length / V2 variant; read-out: EC50

Molecule	EC50 [nM]
SEQ ID NO: 6: A2G GLP-2 mimetibody linker variant; core HGDGSFSDEMNTILDNLAARDFINWLIQTKITDGGGGSCPPCP (cysteine pairing not given here; also: core of a mimetibody, fused to further protein chains)	40
SEQ ID NO: 11: A2G GLP-2 mimetibody V2 region variant; core […] (HGDGSFSDEMNTILDNLAARDFINWLIQTKITDGSGGGSGALVAVSSESKYGPPCPPCP; chains of the parent or of the whole protein)	3.1

Results, then the molecule that gave them:

EC50 [nM]	Molecule
22.5	SEQ ID NO: 7: A2G GLP-2 mimetibody linker variant; core HGDGSFSDEMNTILDNLAARDFINWLIQTKITDGGGGSGGGGSCPPCP (cysteine pairing not given here; also: core of a mimetibody, fused to further protein chains)
12.7	SEQ ID NO: 8: A2G GLP-2 mimetibody linker variant; core HGDGSFSDEMNTILDNLAARDFINWLIQTKITDGGGGSGGGGSGGGGSCPPCP (cysteine pairing not given here; also: core of a mimetibody, fused to further protein chains)
4.6	SEQ ID NO: 9: A2G GLP-2 mimetibody linker variant; core HGDGSFSDEMNTILDNLAARDFINWLIQTKITDGGGGSGGGGSGGGGSGGGGSCPPCP (cysteine pairing not given here; also: core of a mimetibody, fused to further protein chains)
2.1	SEQ ID NO: 10: A2G GLP-2 mimetibody linker variant; core HGDGSFSDEMNTILDNLAARDFINWLIQTKITDGGGGSGGGGSGGGGSGGGGSGGGGSCPPCP (protein, chains of the parent or of the whole protein) HGDGSFSDEMNTILDNLAARDFINWLIQTKITDGGGGSGGGGSGGGGSGGGGSGGGGSCPPCP

Same assay, conditions: Table 2; mimetibodies with Pro substitution; read-out: EC50

Molecule	EC50 [nM]
SEQ ID NO: 42: GLP-2 mimetibody Pro substitution variant; core HGDGSFSDEMNTILDNLAARDFINWLIQTKITDGSGGGSGALVPVSSESKYGPPCPPCP (Mimetibody)	3.6
SEQ ID NO: 45: GLP-2 mimetibody Pro substitution variant; core […] (HGDGSFSDEMNTILDNLAARDFINWLIQTKITDGSGGGSGALVAVSSESKPGPPCPPCP)	5.8
